From US8524664B2, “Methods of treating overproduction of cortisol using ACTH antagonist peptides” (Colorado Seminary, Which owns and Operates The Univeristy …, priority 2011, dated 2013)
Entries after “also recorded” stand apart in the source; their conditions may differ. Like-named read-outs stand apart in the source and are kept apart here. One block for each substance: values may come before it.

Legend:
MC2R [1] = molecular target: T1, MC2R (Homo sapiens, UniProt Q01718); assay: Activation of hMC2R by ACTH analogs: cAMP production in CHO cells co-transfected with hMC2R and mouse MRAP1; assay type: cell-based; set-up: host or cells: CHO cells, transient transfection, pcDNA3.1; conditions: for MC2R activation relative to full-length ACTH / MC2R activation relative to full-length ACTH: fold drop in activity: analog alone, transfected CHO cells, cAMP after 15 min
Experimental: (§1) FIG. 1. Inhibition of ACTH(1-24) by ACTH(15-24) peptide. For all experiments, Chinese Hamster Ovary (CHO) cells were transiently transfected with a human melanocortin receptor gene construct (MC2R for FIGS. 1-3) and a mouse MRAP1 gene, as described in the Examples section. Two days later, individual wells of transfected CHO cells (10^5 cells per well) were incubated with ACTH(1-24) at concentrations ranging from 10^−6 to 10^−12 M. For these experiments, each concentration of ACTH(1-24) was co-incubated with either no KKRRPVKVYP (SEQ ID NO:1) (filled circle), 10^−6 M KKRRPVKVYP (SEQ ID NO:1) (filled diamond), 10^−7 M KKRRPVKVYP (SEQ ID NO:1) (half-filled square), 10^−8 KKRRPVKVYP (SEQ ID NO:1) (circle in square), or 10^−9 M KKRRPVKVYP (SEQ ID NO:1) (open square). After a 15 minute incubation, the amount of cAMP produced in each well of CHO cells was measured. Each data point is a minimum of n=3. […] The ACTH analog ACTH(11-24) [KPVGKKRRPVKVYP; SEQ ID NO:7] at a concentration of 10^−6 M produced a 50% inhibition of ACTH(1-24) stimulation, but had no effect on ACTH(1-24) stimulation when tested at a concentration of 10^−7 M.
(§2) To test this hypothesis, a human MC2R gene construct was transiently co-transfected with a mouse MCR2R accessory protein 1 (MRAP1) gene into CHO cells and subsequently, cAMP production was measured.
(§3) Human hMC2R, Genbank Accession No. AY225229.1, was synthesized by GenScript with a V-5 epitope tag and inserted into a pcDNA3.1 vector. Mouse (Mus musculus) mMRAP1, Genbank Accession No. NM_029844, was also synthesized by GenScript with a FLAG epitope tag and inserted into pcDNA3.1 vectors.
(§4) The experiments were all done in transiently transfected CHO cells. The CHO cells were grown at 37° C. in a humidified 5% CO2 incubator in Kaighn's Modification of Ham's F-12 (2 mM glutamine, 1500 mg/L bicarbonate) with 10% fetal bovine serum, 5 mL pen/strep, and 1 mL normocin.
(§5) In order to functionally express hMC2R in heterologous cells, like CHO cells, the hMC2R construct must be co-transfected with a mammalian MRAP (melanocortin receptor accessory protein; Hinkle, P. M. and Sebag, J. A. (2009) Structure and function of the melanocortin 2 receptor accessory protein. Mol. Cell. Endocrinol. 300:25-31). CHO cells were transfected with 2 μg of hMC2R and mMRAP using a Cell Line Nucleofector Kit (Amaxa, Inc.) with solution T and program U-023. The cells were then plated on a white, 96-well plate a density of 1×10^5 cells per well. 48 hours after transfection, cells were stimulated with the appropriate ligands in serum-free CHO media for 15 minutes at 37° C. at concentrations ranging from 10^−5 M to 10^−10 M. After a 15 minute incubation, a direct cAMP EIA kit (Assay Designs, Ann Arbor, Mich.) was used to measure cAMP in the CHO cells.
(§6) All experimental treatments were performed in no less than triplicate, and then corrected for control values, which were obtained by using transfected cells that were left unstimulated. In each of the assays, maximal activation levels were between three to 10 times the control level. Corrected values were normalized to 100 nM ACTH activation. Average values and standard errors of the mean were graphed using KaleidaGraph software, and the […] value for each ligand was determined.
Target sequence in this assay (Q01718 whole entry): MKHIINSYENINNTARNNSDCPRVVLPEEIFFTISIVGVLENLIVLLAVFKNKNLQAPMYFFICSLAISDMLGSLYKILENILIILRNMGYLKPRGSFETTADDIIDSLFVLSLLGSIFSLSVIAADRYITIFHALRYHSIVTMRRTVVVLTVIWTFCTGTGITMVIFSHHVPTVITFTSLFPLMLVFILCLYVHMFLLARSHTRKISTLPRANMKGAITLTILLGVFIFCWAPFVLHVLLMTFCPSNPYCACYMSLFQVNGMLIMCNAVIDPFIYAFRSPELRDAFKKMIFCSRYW
Target sequence in this assay (Q9D159 whole entry partner): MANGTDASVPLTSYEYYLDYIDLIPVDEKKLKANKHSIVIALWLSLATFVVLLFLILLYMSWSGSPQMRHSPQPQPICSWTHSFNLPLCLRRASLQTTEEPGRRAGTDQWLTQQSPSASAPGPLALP

MC2R [2] = molecular target: T1, MC2R; conditions: from previous studies / literature, cited from earlier work
Target sequence in this assay (Q01718 whole entry, species assumed): as the sequence (Q01718 whole entry) above
Target sequence in this assay (Q8TCY5 whole entry partner, species assumed): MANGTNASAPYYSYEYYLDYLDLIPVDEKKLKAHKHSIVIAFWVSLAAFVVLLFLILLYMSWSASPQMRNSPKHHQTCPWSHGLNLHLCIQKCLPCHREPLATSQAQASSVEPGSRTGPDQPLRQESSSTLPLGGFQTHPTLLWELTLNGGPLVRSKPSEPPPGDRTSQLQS

MC2R [3] = molecular target: T1, MC2R; assay: Inhibition of ACTH(1-24)-dependent hMC2R activation by co-incubated analog: cAMP in transfected CHO cells; assay type: cell-based; set-up: host or cells: CHO cells, transient transfection, pcDNA3.1
Experimental: as §1
Target sequence in this assay (Q01718 whole entry): as the sequence (Q01718 whole entry) above
Target sequence in this assay (Q9D159 whole entry partner): as the sequence (Q9D159 whole entry partner) above
FIG. 2. Dose response curve for ACTH analog AT814. AT814 is a previously-described ACTH inhibitor (WO 2006/052468). For this experiment, individual wells of transfected CHO cells (as described for FIG. 1) were incubated with ACTH(1-24) at concentrations ranging from 10^−6 to 10^−12 M alone (open circle) or ACTH(1-24) and AT814 at a concentration of 10^−6 M (open square).
FIG. 3. Dose response curve for ACTH analog AT814. […] Open circles: ACTH(1-24) alone; open squares: ACTH(1-24)+AT814 (10^−7 M).
as §2, §3, §4, §5, §6

MC2R [4] = molecular target: T1, MC2R; assay: Activation of hMC2R by ACTH analogs: cAMP production in CHO cells co-transfected with hMC2R and mouse MRAP1; assay type: cell-based; set-up: host or cells: CHO cells, transient transfection, pcDNA3.1; conditions: 10^-6 to 10^-12 M
Target sequence in this assay (Q01718 whole entry): as the sequence (Q01718 whole entry) above
Target sequence in this assay (Q9D159 whole entry partner): as the sequence (Q9D159 whole entry partner) above

human MC4R = molecular target: T2, human MC4R (Homo sapiens, UniProt P32245); assay: Activation of human MC4R in hMC4R-transfected CHO cells (cAMP production); assay type: cell-based; conditions: analog at 10^-6 to 10^-12 M
T2 construct: expressed in transfected cells; host or cells: CHO cells, pcDNA3.1
Experimental: FIG. 4. Activation of human MC4R by ACTH analog AT814. Because AT814 has the HFRW (SEQ ID NO:8) motif, the hypothesis that this analog could activate the human MC4 receptor was tested. CHO cells were transfected with a human MC4R cDNA construct in a pcDNA3.1 vector.

[5] = analog at 10^-6 M co-incubated with ACTH(1-24) 10^-6 to 10^-12 M
[6] = analog at 10^-7 M co-incubated with ACTH(1-24) 10^-6 to 10^-12 M
[7] = analog at 10^-8 M co-incubated with ACTH(1-24)

T2 sequence (P32245 whole entry): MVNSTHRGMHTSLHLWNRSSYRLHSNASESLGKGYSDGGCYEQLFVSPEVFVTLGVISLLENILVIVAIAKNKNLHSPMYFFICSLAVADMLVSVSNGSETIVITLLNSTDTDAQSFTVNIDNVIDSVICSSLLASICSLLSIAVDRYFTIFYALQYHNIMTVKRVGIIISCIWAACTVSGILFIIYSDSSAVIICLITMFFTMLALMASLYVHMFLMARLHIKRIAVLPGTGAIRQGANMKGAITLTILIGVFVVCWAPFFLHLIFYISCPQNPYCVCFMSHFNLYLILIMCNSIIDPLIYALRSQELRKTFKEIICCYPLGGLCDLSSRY

MC2R activation relative to full-length ACTH (MC2R [1]): No activity
Substance: SYSMEAAAAGKPVGKKRRPVKVYP (synthetic adrenocorticotropin hormone (ACTH) analog)

MC2R activation relative to full-length ACTH (MC2R [1]): No activity
Substance: SYSMEHFAWGKPVGKKRRPVKVYP (synthetic adrenocorticotropin hormone (ACTH) analog)

Substance: NAc-SYSMEHFRWGKPV-NH2 [α-MSH]
activation of MC2R (previous studies) (MC2R [2]): cannot activate

inhibition of ACTH(1-24) activation of hMC2R (MC2R [3]; [5]): did not block
Substance: KKRRPAAAA (synthetic adrenocorticotropin hormone (ACTH) analog)

MC2R activation relative to full-length ACTH: fold drop in activity (MC2R [1]): 400 fold drop
Substance: SYSMEHFRWAAAAAKKRRPVKVYP (synthetic adrenocorticotropin hormone (ACTH) analog)

MC2R activation relative to full-length ACTH (MC2R [1]): No activity
Substance: SYSMEHARWGKPVGKKRRPVKVYP (synthetic adrenocorticotropin hormone (ACTH) analog)

MC2R activation relative to full-length ACTH (MC2R [1]): No activity
activation of hMC2R (cAMP production) by analog incubated alone (MC2R [4]): did not activate
inhibition of ACTH(1-24) activation of hMC2R (MC2R [3]; [5]): complete blockage
inhibition of ACTH(1-24) activation of hMC2R (MC2R [3]; analog at 10^-6 M co-incubated with ACTH(1-24) 10^-6 to 10^-12 M, listed as ACTH(15-24)): completely blocked
inhibition of ACTH(1-24) activation of hMC2R (MC2R [3]; [6]): complete blockage
inhibition of ACTH(1-24) activation of hMC2R (MC2R [3]; analog at 10^-7 M co-incubated with ACTH(1-24) 10^-6 to 10^-12 M, listed as ACTH(15-24)): completely blocked
drop in hMC2R activation by ACTH(1-24) (MC2R [3]; [7]): 34±5%
inhibition of ACTH(1-24) activation of hMC2R (MC2R [3]; [7]): partial blockage
inhibition of ACTH(1-24) activation of hMC2R (MC2R [3]; analog at 10^-9 M co-incubated with ACTH(1-24)): no effect
Substance: KKRRPVKVYP (synthetic adrenocorticotropin hormone analog ACTH(15-24) peptide, human ACTH residues 15-24, ACTH antagonist polypeptide) [ACTH antagonist polypeptide, residues 15-24 of human ACTH]

Substance: SYSMEHFRWGKPVGKRAAWVKVYP (synthetic adrenocorticotropin hormone (ACTH) analog AT814 with modified KKRRP motif) [reference compound]
activation of human MC4R (cAMP production) (human MC4R): can activate; also recorded: stimulated the production of cAMP in a dose dependent manner
inhibition of ACTH(1-24) activation of hMC2R (MC2R [3]; [5]): competitive inhibitor; also recorded: completely inhibited
inhibition of ACTH(1-24) activation of hMC2R (MC2R [3]; [6]): ineffective; also recorded: no inhibitory effect

MC2R activation relative to full-length ACTH: fold drop in activity (MC2R [1]): 100 fold drop
Substance: SYSMEHFRWGKPVGAARRPVKVYP (synthetic adrenocorticotropin hormone (ACTH) analog)

inhibition of ACTH(1-24) stimulation (MC2R [3]; analog at 10^-6 M co-incubated with ACTH(1-24)): 50%
inhibition of ACTH(1-24) activation of hMC2R (MC2R [3]; [6]): no effect
Substance: KPVGKKRRPVKVYP (synthetic adrenocorticotropin hormone analog ACTH(11-24) peptide, human ACTH residues 11-24) [ACTH analog ACTH(11-24), reference compound]

MC2R activation relative to full-length ACTH (MC2R [1]): Full activity
Substance: SYSMEHFRWGKPVGKKRRPVKVYP [reference compound]
activation of MC2R (previous studies) (MC2R [2]; listed as ACTH(1-24)): as potent an activator of MC2R as ACTH(1-39); also recorded: as fully as full-length human ACTH
activation of hMC2R (cAMP production) by analog incubated alone (MC2R [1]; 10^-6 to 10^-12 M, listed as ACTH(1-24)): robust standard curve; also recorded: produced cAMP in a dose dependent manner

MC2R activation relative to full-length ACTH (MC2R [1]): No activity
inhibition of ACTH(1-24) activation of hMC2R (MC2R [3]; [5]): did not block
inhibition of ACTH(1-24) activation of hMC2R (MC2R [3]; analog at 10^-6 M co-incubated with ACTH(1-24) 10^-6 to 10^-12 M, listed as ACTH(17-24)): no inhibitory effect
Substance: RRPVKVYP (synthetic adrenocorticotropin hormone analog ACTH(17-24) peptide, human ACTH residues 17-24) [ACTH analog ACTH(17-24)]

MC2R activation relative to full-length ACTH: fold drop in activity (MC2R [1]): 100 fold drop
Substance: SYSMEHFRWGKPVGKKAAAVKVYP (synthetic adrenocorticotropin hormone (ACTH) analog)

MC2R activation relative to full-length ACTH (MC2R [1]): No activity
Substance: SYSMEHFRWGKPVGAAAAAVKVYP (synthetic adrenocorticotropin hormone (ACTH) analog)
